Results reported in patent US20230057071A1 (NOVARTIS AG, priority 2019, published 2023).

Target: T1, TIM-3/Galectin-9 interaction (Homo sapiens, UniProt Q8TDQ0)
T1 construct: purchased R&D Systems
Test: Plate-based (MesoScale) competition assay of the TIM-3/Galectin-9 interaction
Assay type: binding
Details: serial dilutions of antibody; labeled Galectin-9 100 nM
Protocol: FIG. 1 is a graph depicting the impact of MBG453 on the interaction between TIM3 and galectin-9. Competition was assessed as a measure of the ability of the antibody to block Gal9-SULFOTag signal to TIM-3 receptor, which is shown on the Y-axis. Concentration of the antibody is shown on the X-axis.
TIM-3 fusion protein (R&D Systems) was coated on a standard MesoScale 96 well plate (Meso Scale Discovery) at 2 μg/ml in PBS (Phosphate Buffered Saline) and incubated for six hours at room temperature. The plate was washed three times with PBST (PBS buffer containing 0.05% Tween-20) and blocked with PBS containing 5% Probumin (Millipore) overnight at 4° C. After incubation, the plate was washed three times with PBST and unlabeled antibody (F38-2E2 (BioLegend); MBG453; MBG453 F(ab′)2; MBG453 F(ab); or control recombinant human Galectin-9 protein) diluted in Assay Diluent (2% Probumin, 0.1% Tween-20, 0.1% Triton X-100 (Sigma) with 10% StabilGuard (SurModics)), was added in serial dilutions to the plate and incubated for one hour on an orbital shaker at room temperature. […] The plate was again washed three times with PBST, and Read Buffer T (1×) was added to the plate. The plate was read on MA600 Imager, and competition was assessed as a measure of the ability of the antibody to block Gal9-SULFOTag signal to TIM-3 receptor.

block of the interaction between TIM-3 and Galectin-9 (Gal9-SULFOTag signal to TIM-3): did not
B1: control Galectin-9 protein: unlabeled control recombinant human Galectin-9 protein (protein)
chain: AFSGSQAPYLSPAVPFSGTIQGGLQDGLQITVNGTVLSSSGTRFAVNFQTGFSGNDIAFHFNPRFEDGGYVVCNTRQNGSWGPEERKTHMPFQKGMPFDLCFLVQSSDFKVMVNGILFVQYFHRVPFHRVDTISVNGSVQLSYISFQPPGVWPANPAPITQTVIHTVQSAPGQMFSTPAIPPMMYPHPAYPMPFITTILGGLYPSKSILLSGTVLPSAQRFHINLCSGNHIAFHLNPRFDENAVVRNTQIDNSWGSEERSLPRKMPFVRGQSFSVWILCEAHCLKVAVDGQHLFEYYHRLRNLPTINRLEVGGDIQLTHVQT
